According to US20230323410A1, “BACTERIAL CELLS AND METHODS FOR PRODUCTION OF 2-FLUORO-CIS,CIS-MUCONATE” (priority 2020, published 2023):

Tested on: msfGFP reporter gene under control of BCD10
Format: cell-based, P. putida KT2440
Settings: 5 mM 3-FBz (inducible systems), 30 mM glucose, FIG. 6

B1: PEM7: constitutive promoter, SEQ ID NO: 59 (nucleic acid)
DNA: TTGTTGACAATTAATCATCGGCATAGTATATCGGCATAGTATAATACGACAAGGTGAGGAACTAAACC
modifications: expressed or natural sequence
transcription initiation rate: quotient of OD630 nm-normalized fluorescence with the one of Ptac: 0.57
